T1: 6xHIS-GluTR1 (glutamyl-tRNA reductase 1) (Arabidopsis, UniProt P42804 62-543)
T1 construct: glutamyl-tRNA reductase 1 (GluTR1), Arabidopsis, encoded by HEMA1; Czarnecki et al., 2011; Wang et al., 2018; source: E. coli BL21, purified (Ni-NTA)
T1 sequence (looked up): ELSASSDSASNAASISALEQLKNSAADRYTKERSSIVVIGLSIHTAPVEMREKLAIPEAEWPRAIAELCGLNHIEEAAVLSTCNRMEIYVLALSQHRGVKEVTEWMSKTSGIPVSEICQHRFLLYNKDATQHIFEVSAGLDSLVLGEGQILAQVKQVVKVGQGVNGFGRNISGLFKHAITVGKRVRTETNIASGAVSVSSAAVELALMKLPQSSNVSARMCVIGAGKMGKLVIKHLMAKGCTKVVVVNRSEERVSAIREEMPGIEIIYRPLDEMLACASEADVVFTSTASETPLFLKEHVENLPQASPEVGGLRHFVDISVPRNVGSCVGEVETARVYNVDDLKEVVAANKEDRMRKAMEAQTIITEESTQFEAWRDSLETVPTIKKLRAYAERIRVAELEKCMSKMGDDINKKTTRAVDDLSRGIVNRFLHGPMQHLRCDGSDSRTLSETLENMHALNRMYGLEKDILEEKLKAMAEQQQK

T2: 6xHIS-GluTR1-FLUO (fluorophore-labeled 6xHIS-GluTR1) (Arabidopsis, UniProt P42804 62-543, fluorophore from the RED-NHS (Amine Reactive) protein labeling kit (second generation))
T2 construct: glutamyl-tRNA reductase 1 (GluTR1), Arabidopsis, encoded by HEMA1; same construct as m1, labeled; m1 after amine-reactive labelling; also called labeled HIS-GluTR; source: E. coli BL21, purified (Ni-NTA), labeled with the RED-NHS protein labeling kit
T2 sequence (looked up): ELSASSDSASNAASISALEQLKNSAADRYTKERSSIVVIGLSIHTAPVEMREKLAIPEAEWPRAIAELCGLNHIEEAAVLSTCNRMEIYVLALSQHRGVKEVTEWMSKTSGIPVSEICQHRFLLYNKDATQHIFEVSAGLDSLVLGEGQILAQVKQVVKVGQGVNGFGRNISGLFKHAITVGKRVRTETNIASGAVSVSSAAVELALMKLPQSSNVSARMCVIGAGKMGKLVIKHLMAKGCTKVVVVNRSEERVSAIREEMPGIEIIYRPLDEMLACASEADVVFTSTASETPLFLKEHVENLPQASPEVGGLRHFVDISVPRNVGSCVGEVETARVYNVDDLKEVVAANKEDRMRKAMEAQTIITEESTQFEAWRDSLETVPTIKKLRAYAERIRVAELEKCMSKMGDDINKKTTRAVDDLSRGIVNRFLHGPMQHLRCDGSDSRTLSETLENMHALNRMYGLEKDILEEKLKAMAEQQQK


What was measured:
Details in all cases: both partners purified
[1] = molecular target: T1, 6xHIS-GluTR1 (glutamyl-tRNA reductase 1); assay: MST; 200 nM labeled 6xHIS-GBP-FLUO constant, 6xHIS-GluTR1 titrated from 7.5 µM, PBS, Monolith NT.115; Kd from initial fluorescence quenching; no hemin; n = 2
[2] = molecular target: T1, 6xHIS-GluTR1 (glutamyl-tRNA reductase 1); assay: MST; as a3 with addition of 1 µM hemin
[3] = molecular target: T2, 6xHIS-GluTR1-FLUO (fluorophore-labeled …); assay: MST; as a5 with addition of 1 µM hemin
[4] = molecular target: T2, 6xHIS-GluTR1-FLUO (fluorophore-labeled …); assay: MST; 200 nM labeled 6xHIS-GluTR1-FLUO constant, 6xHIS-GBP titrated from 7.5 µM, PBS, Monolith NT.115; MST signal 1.5 s after turning on the laser; no hemin; n = 2

Row | Binder | Kd [1] [nM] | Kd [2] [nM] | Kd [3] [nM] | Kd [4] [nM]
1 | 6xHIS-GBP-FLUO (fluorophore-labeled 6xHIS-GBP) (natural protein, Arabidopsis, UniProt Q9LU39 43-317, looked up, fluorophore from the RED-NHS (Amine Reactive) protein labeling kit (second generation), same construct as m3, labeled; m3 after amine-reactive labelling; also called labeled HIS-GBP; labeled GBP; source: E. coli BL21, purified (Ni-NTA), labeled with the RED-NHS protein labeling kit) SVSTTLDTPATASTHKPFPAEVSRSIMELSSVGTLSTLTHDGWPLGVGVRFAVDKDGTPVLCLNRSVSPDKRSALHVQLEQCGLRTPQCTIQGSIGRPGDDTVLKRLSATWREKFGEEVKEDSLYVVAVDRVLQMEDFMEDGIWVASSDYKNASPDPLRDIAEDIVNQINANNMEDIFRFCNVYVDLDFVVSETKMIWMDRLGFDLRVWSPRGVYDVRIPFPMEVTDEKGAKSSFNGMSQLAWEVEKSYCPADFNKVKLLKQVVGSSHSHKGGGQ | 65 | 931 | – | –
2 | 6xHIS-GBP (GluTR-binding protein) (natural protein, Arabidopsis, UniProt Q9LU39 43-317, looked up, Czarnecki et al., 2011; Wang et al., 2018; probably without the transit peptide; source: E. coli BL21, purified (Ni-NTA)) SVSTTLDTPATASTHKPFPAEVSRSIMELSSVGTLSTLTHDGWPLGVGVRFAVDKDGTPVLCLNRSVSPDKRSALHVQLEQCGLRTPQCTIQGSIGRPGDDTVLKRLSATWREKFGEEVKEDSLYVVAVDRVLQMEDFMEDGIWVASSDYKNASPDPLRDIAEDIVNQINANNMEDIFRFCNVYVDLDFVVSETKMIWMDRLGFDLRVWSPRGVYDVRIPFPMEVTDEKGAKSSFNGMSQLAWEVEKSYCPADFNKVKLLKQVVGSSHSHKGGGQ | – | – | 806 | 113

— article PMC6597238, “The GluTR-binding protein is the heme-binding factor for feedback control of glutamyl-tRNA reductase” (eLife, 2019)
